According to publication PMC3869376:

Key:
[1] = biological target: 14-3-3β (UniProt P31946); assay: GST-14-3-3β pull-down from cell lysate; settings: reference: HA-PDE3B wild type; sites S318
[2] = biological target: 14-3-3β (UniProt P31946); assay: DIG-GST-14-3-3β overlay on blotted immunoprecipitated PDE3B; settings: reference: HA-PDE3B wild type; sites S318

Sequence of 14-3-3β (P31946 whole entry, looked up): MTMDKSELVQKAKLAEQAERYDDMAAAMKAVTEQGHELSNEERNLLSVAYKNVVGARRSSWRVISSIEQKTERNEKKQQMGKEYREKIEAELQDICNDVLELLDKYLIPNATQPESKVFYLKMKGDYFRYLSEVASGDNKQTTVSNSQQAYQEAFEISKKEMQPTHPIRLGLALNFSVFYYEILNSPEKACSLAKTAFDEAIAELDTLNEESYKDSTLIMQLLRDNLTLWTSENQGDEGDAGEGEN

binding against the reference [1]: lost
binding against the reference [2]: lost
Substance: PDE3B (phosphodiesterase 3B) (from UniProt Q13370-2) HA-PDE3B S318A
